Two molecules from article PMC5988983 can be followed below.

Broadly, the stoichiometry N is a count of units in the complex or per binding partner. As usually defined, the Km is the concentration of substrate that gives half-maximal velocity. The term kcat denotes the number of substrate molecules converted per active site and unit of time at saturation. One may read the kcat/Km as the second-order rate constant that governs catalysis at low substrate concentration.

For series [1], the target named is γ-Resorcylate decarboxylase (γ-RSD) from Polaromonas sp. JS666, His6-tagged (Polaromonas sp. JS666). The series is described as follows: crystal structure.
Substrate in series [2]: O=C(O)c1c(O)cccc1O
The series is described as follows: purified protein. Conditions: 50 mM HEPES pH 7.0, 30 °C. It counts as biochemical, Polaromonas sp. JS666.

Substrate in series [3]: Cc1cc(O)c(C(=O)O)c(O)c1
The series is described as follows: purified protein. As to conditions: 50 mM HEPES pH 7.0, 30 °C. It counts as biochemical, Polaromonas sp. JS666.

Substrate in series [4]: O=C(O)c1cccc(O)c1O
The series is described as follows: purified protein. In kind it is biochemical, Polaromonas sp. JS666. As to conditions: 50 mM HEPES pH 7.0, 30 °C.

Substrate in series [5]: O=C(O)c1c(O)cc(O)cc1O
The series is described as follows: purified protein. Conditions: 50 mM HEPES pH 7.0, 30 °C. It counts as biochemical, Polaromonas sp. JS666.

“γ-Resorcylate decarboxylase (γ-RSD) from Polaromonas sp. JS666, His6-tagged (enzyme)” displayed a stoichiometry N in series [1] of 4.

B1: γ-RSD (γ-resorcylate decarboxylase) (Polaromonas sp. JS666) (protein)
chain: MNGKIALEEHFATEETLMDSAGFVPDKDWPELRSRLLDIQDRRVRLMDEHGIETMILSLNAPAVQAIADSTRANETARRANDFLAEQVAKQPTRFRGFAALPMQDPELAARELERCVKELGFVGALVNGFSQDNRSAVPLYYDMAQYWPFWETVQALDVPFYLHPRNPLPSDARIYDGHAWLLGPTWAFGQETAVHALRLMGSGLFDKYPALKIILGHMGEGLPYSMWRIDHRNAWIKTTPKYPAKRKIVDYFNENFYLTTSGNFRTQTLIDAILEIGADRILFSTDWPFENIDHAADWFENTSISEADRKKIGWGNAQNLFKLNR
B1: the Km was 32 ± 2 µM in “purified protein [2]”, 79 ± 6 µM in “purified protein [3]”, 111 ± 11 µM in the series “purified protein [4]” and 48 ± 1 µM in the series “purified protein [5]”. In addition, the kcat in the series “purified protein [2]” was 0.44 ± 0.01 s⁻¹; in the series “purified protein [3]” it was 0.38 ± 0.01 s⁻¹; in “purified protein [4]”, 0.47 ± 0.02 s⁻¹; in “purified protein [5]”, 0.18 ± 0.01 s⁻¹. Moreover, the kcat/Km in the series “purified protein [2]” turned out to be 13000 ± 1000 M⁻¹ s⁻¹; in the series “purified protein [3]”, 4800 ± 400 M⁻¹ s⁻¹; in “purified protein [4]”, 4200 ± 500 M⁻¹ s⁻¹; in “purified protein [5]” it was 3800 ± 300 M⁻¹ s⁻¹.
